Results on four substances are retold here after US5770577.

The target of this test is trkB.
For the substance “monoMPEG(6 kDa)-BDNF conjugate with site of attachment at the N-terminal alpha-amino group(s) (Example 1) (ligand)”, the Activ. in vitro (MTS tetrazolium uptake by PC12/pcDneo-trkB#18 cells) worked out at 101%. In turn, “monoMPEG(20 kDa)-BDNF conjugate with site of attachment at the N-terminal alpha-amino group(s) (Example 2) (ligand)” returned an Activ. in vitro (MTS tetrazolium uptake by PC12/pcDneo-trkB#18 cells) of 73%. In turn, “polyMPEG(6 kDa)-BDNF conjugates with MPEG aldehydes, six-fold molar excess (Example 4) (ligand)” yielded an Activ. in vitro (MTS tetrazolium uptake by PC12/pcDneo-trkB#18 cells) of 25%. Regarding r-metHuBDNF (ligand), the Activ. in vitro (MTS tetrazolium uptake by PC12/pcDneo-trkB#18 cells) came to 100%.
